Data taken from PMC3299919.

Biological target: Nucleocapsid protein N (Rift Valley fever virus (strain M12)) (UniProt P21700)
Test: FP competition
Details: 10 mM HEPES pH 7.3 ([…]) or pH 8 ([…]

Sequence of UniProt P21700 (P21700 whole entry): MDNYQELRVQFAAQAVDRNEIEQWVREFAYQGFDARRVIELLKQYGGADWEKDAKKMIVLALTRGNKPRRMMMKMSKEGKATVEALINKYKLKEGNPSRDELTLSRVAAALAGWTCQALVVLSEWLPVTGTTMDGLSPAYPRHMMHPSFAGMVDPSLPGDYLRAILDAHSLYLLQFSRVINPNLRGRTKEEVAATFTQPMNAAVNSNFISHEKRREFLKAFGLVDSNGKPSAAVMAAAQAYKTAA

CGUCCCGUAGUGUCGGUACUGAUUGAUGUG [MBE15.3]
Ki: 200 nM
